Laboratory results: patent US20240076386A1 (Pfizer, published 2024)
Changes are numbered by the printed parent chain.

B1: anti-E-selectin antibody 0164 chimera (antibody, human IgG1, kappa, V domains shown)
VH: EVQLQQSGAEFGKPGTSVKLSCKVSGYNIRSSYMHWVNQRPGKGLEWIGRIDPANGNTIYAEKFKIKAILTADSSSNTAYMQLSQLKSDDTAIYFCAMDLYSTSEYWGQGVMVTVSS
VL: DIQMTQSPSFLSASVGDRVTINCKTSQNINRYLNWYQQKLGEAPKLLIYNANSLQTGIPSRFSASGSGTDFTLTINSLQPEDVATYFCLQDNSWPLTFGSGTKLEIKR
notes: rat VH/VL on effector-null human IgG1 and human kappa
B2: optimized anti-E-selectin antibody 1282 (antibody, human IgG1, kappa, V domains shown)
VH: EVQLVESGGGLVQPGGSLRLSCAASGYAIRSAYMHWVRQAPGKGLEWVARIDPANGNTIYVDSVEGRFTISADNAKNSAYLQMNSLRAEDTAVYYCAMDLYSTSEYWGQGTLVTVSS
VL: DIQMTQSPSSLSASVGDRVTITCKTSQNIERYLNWYQQKPGKAPKLLIYAASSLQSGVPSRFSGSGSGTDFTLTISSLQPEDFATYFCLQDNAWPLTFGQGTKVEIKR
notes: effector-null human IgG1, kappa
B3: optimized anti-E-selectin antibody 1284 (antibody, human IgG1, kappa, V domains shown)
VH: B2 VH with D62E
VL: B2 VL
notes: as for B2
B4: optimized anti-E-selectin antibody 1444 (antibody, human IgG1, kappa, V domains shown)
VH: B2 VH with E65T
VL: B2 VL
notes: as for B2
B5: optimized anti-E-selectin antibody 1448 (antibody, human IgG1, kappa, V domains shown)
VH: B2 VH with E65K, G66E
VL: B2 VL
notes: as for B2

Target: T1, cynomolgus monkey E-selectin, cell-surface expressed (cynomolgus monkey, UniProt P16581 22-610 (human entry))
T1 construct: also called CHO-cynomolgus monkey E-selectin cells; cynomolgus monkey CHO-E
T1 chain: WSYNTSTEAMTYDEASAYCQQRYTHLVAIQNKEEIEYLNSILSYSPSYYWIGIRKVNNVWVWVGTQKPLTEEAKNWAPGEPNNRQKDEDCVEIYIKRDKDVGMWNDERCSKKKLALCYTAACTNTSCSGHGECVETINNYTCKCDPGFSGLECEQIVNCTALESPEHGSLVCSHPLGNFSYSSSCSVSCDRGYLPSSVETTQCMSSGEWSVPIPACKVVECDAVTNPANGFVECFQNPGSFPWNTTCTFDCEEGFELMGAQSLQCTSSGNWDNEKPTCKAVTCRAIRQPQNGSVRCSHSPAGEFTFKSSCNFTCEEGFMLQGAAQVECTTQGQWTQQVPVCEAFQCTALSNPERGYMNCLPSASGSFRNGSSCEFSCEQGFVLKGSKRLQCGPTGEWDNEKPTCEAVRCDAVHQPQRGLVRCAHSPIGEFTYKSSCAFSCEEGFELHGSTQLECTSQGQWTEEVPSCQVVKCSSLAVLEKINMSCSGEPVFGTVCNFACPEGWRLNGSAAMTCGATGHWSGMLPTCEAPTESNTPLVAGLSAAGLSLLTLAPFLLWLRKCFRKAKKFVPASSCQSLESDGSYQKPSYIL
Experiment: competition ELISA on CHO cells vs sialyl Lewis ligand-PAA-biotin/SA-HRP
Description: In a static ligand cellular adhesion assay, horse radish peroxidase (HRP) conjugated E-selectin ligand (sialyl Lewis antigen) and E-selectin antibodies compete for binding to human or cynomolgus E-selectin expressed on Chinese hamster ovary (CHO) cells. The ability of anti-E-selectin antibodies to neutralize ligand binding was assessed in a static neutralization assay using a competition enzyme-linked immunosorbent assay (ELISA) to evaluate the neutralization of the sialyl Lewis antigen to Chinese hamster ovary cells (CHO) engineered to express human or cynomolgus monkey E-selectin.
CHO cells expressing E-selectin were seeded at 12,500 cells per well into a 96 well tissue culture plate and incubated at 37° C., 5% CO₂ for 48 hours to form a confluent monolayer. Plates were subsequently washed twice with 200 μL of calcium magnesium free PBS. Anti-E-selectin antibodies or an IgG1 isotype control (IgG control) were added to the assay in the presence of a small synthetic conjugate of biotinylated, sialyl Lewis A polyacrylamide (Carbosynth LLC, OS45446) or sialyl Lewis X polyacrylamide (Glycotech, 01-045) with streptavidin/horseradish peroxidase (100 μL total) and incubated at 37° C., 5% CO₂ for 2 hours. Plates were then washed twice with 200 μL of calcium and magnesium free PBS. Following the incubation, the cells were washed twice with 200 μL of wash buffer containing 2 mM of calcium chloride (50 mM TRIS [trisaminomethane], 150 mM sodium chloride; 0.05% polysorbate 20, pH 7.4; 2 mM calcium chloride). Signal was developed by adding 100 μL of 1-Step Ultra TMB substrate (Thermo Scientific, 34028) and incubating for 30 minutes at room temperature. Reactions were stopped using 2 M of sulfuric acid and absorbance was read at 450 nm (Spectramax M5e). Data were analyzed and graphed using GraphPad Prism software (Version 8.0.2).

| Binder | IC50 [nM] |
| --- | --- |
| B1 | 2.25 |
| B2 | 1.29 |
| B3 | 1.91 |
| B4 | 2.65 |
| B5 | 1.85 |

Target: T2, human E-selectin coated on the plate of the competition binding ELISA (human, UniProt P16581 22-556, limits assumed)
T2 sequence (looked up): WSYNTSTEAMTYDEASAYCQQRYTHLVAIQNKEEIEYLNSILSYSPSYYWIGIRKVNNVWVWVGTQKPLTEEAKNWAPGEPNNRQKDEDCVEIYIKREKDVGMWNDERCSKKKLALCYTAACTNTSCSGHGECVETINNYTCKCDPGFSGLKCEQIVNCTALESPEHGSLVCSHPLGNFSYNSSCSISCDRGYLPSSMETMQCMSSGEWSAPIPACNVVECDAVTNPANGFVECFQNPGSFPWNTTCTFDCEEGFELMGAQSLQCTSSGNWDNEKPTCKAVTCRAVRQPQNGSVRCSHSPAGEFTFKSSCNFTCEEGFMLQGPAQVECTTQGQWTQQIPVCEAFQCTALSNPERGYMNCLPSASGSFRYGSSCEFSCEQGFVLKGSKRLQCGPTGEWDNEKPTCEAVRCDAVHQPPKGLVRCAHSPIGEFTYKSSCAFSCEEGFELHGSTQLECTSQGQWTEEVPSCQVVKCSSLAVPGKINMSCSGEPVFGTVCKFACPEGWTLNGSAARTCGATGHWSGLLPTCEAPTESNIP
Experiment: competition ELISA (Biotin-164 competitive ELISA) on plate-coated human E-selectin; competitor: biotinylated antibody 0164, OD450; forced degradation samples T0, T2, T4 weeks at 40 C in Tris, His or Glu buffer
Description: To additionally asses stability of the forced degradation samples, the activity of the stressed samples was evaluated in a competition binding ELISA. […] The human E-selectin was stored in PBS with Ca/Mg at 500 μg/mL and was diluted with PBS with Ca/Mg to a concentration of 1 μg/mL. This was added to a 384 well MaxiSorp plate, sealed and incubated at 4° C. with gentle shaking overnight. The next day the reagents in each well were removed, followed by addition of 50 μL of blocking buffer (1% BSA in PBS with Ca/Mg) to each well. The wells were sealed and incubated at room temperature for about 1 hour with gentle shaking.
Next, the wash plate was blocked with 1% BSA with PBST (0.05% Tween) on a […] for 3 cycles using 80 μL for each wash. The plate was tapped on a paper towel to drain. […] The wash step was repeated with 3 cycles of 2 washes. Then, dilute Streptavidin-HRP (˜1/7500 diluted in blocking buffer) was added to each well and the plate was incubated at room temperature with gentle shaking ˜40 minutes to 1 hour. The wash step was again repeated with 3 cycles of 2 washes, tapped dry and followed by the addition of 25 μL of TMB substrate (one component HRP microwell substrate). This was followed by the addition of 25 μL of 0.18 M sulfuric acid to stop the reaction when the color reached saturation (determined by observing the color development). The OD450 measurement of the plate was then read on the Envision plate reader, and the data was analyzed with GraphPad, Prism7.

| Binder | IC50 (read off the curve) [nM] |
| --- | --- |
| B2 | ~10 |
| B3 | ~10 |
| B4 | ~10 |
| B5 | ~9 |
